Laboratory results: US20050037969A1 (ARBOR VITA, published 2005)
Ends that are not written are not given here. * marks the point of attachment. Biotin = O=C1N[C@H]2[C@H](CS[C@H]2CCCCC(=O)*)N1

T1: GST-DLG5 (p-dlg) PDZ domain fusion protein (Human, UniProt Q8TDM6 1343-1583)
T1 construct: also called Human discs large protein p-dlg; not shown: glutathione S-transferase encoded by vector pGEX-3X (Pharmacia)
T1 sequence: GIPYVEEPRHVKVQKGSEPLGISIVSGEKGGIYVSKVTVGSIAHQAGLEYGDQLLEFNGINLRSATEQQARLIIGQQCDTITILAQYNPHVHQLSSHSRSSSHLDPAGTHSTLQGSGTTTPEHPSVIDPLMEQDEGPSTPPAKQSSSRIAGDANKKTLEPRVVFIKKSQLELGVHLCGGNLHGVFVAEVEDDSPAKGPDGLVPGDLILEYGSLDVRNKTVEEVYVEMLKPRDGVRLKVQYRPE

T2: GST-DVL1 PDZ domain fusion protein (human, UniProt O14640 247-339)
T2 construct: also called human dishevelled segment polarity protein homolog; not shown: glutathione S-transferase encoded by vector pGEX-3X (Pharmacia)
T2 sequence: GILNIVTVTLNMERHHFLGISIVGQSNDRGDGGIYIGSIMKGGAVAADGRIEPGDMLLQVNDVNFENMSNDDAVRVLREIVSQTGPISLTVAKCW

T3: X11β PDZ-GST fusion protein (Rattus norvegicus (Rat), UniProt O35431 560-745)
T3 construct: Order of GST and PDZ part and limits not seen in the excerpts
T3 chain: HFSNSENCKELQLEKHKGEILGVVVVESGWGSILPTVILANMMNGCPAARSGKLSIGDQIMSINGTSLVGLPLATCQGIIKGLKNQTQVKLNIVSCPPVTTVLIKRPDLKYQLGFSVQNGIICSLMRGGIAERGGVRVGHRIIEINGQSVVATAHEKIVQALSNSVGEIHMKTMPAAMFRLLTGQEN

T4: KIAA0807 (PDZ domain)-GST fusion protein (human, UniProt Q6P0Q8 1104-1192)
T4 construct: also called K807; KIAA807; not shown: glutathione S-transferase encoded by vector pGEX-3X (Pharmacia)
T4 sequence: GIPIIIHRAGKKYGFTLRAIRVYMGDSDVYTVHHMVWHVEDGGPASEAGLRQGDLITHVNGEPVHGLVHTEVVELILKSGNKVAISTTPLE

T5: TAX-IP2L PDZ-GST fusion protein (Homo sapiens (Human), UniProt Q8TF64 107-197)
T5 construct: Order of GST and PDZ part and limits not seen in the excerpts
T5 sequence: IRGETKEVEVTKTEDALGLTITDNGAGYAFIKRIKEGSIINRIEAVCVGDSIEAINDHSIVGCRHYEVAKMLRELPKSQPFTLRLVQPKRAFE

T6: GST-CASK PDZ domain fusion protein (Homo sapiens, UniProt O14936 486-575)
T6 construct: also called Homo sapiens CASK protein
T6 sequence: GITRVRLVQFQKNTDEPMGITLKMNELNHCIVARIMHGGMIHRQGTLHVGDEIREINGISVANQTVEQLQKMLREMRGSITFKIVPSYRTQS

T7: MINT3 PDZ-GST fusion protein
T7 construct: Order of GST and PDZ part and limits not seen in the excerpts
T7 chain: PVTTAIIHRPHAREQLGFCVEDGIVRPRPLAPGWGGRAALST

T8: GST-PDZK1 fusion protein (PDZ domains 2-4) (Homo sapiens, UniProt Q5T2W1 134-457)
T8 construct: not shown: glutathione S-transferase encoded by vector pGEX-3X (Pharmacia)
T8 sequence: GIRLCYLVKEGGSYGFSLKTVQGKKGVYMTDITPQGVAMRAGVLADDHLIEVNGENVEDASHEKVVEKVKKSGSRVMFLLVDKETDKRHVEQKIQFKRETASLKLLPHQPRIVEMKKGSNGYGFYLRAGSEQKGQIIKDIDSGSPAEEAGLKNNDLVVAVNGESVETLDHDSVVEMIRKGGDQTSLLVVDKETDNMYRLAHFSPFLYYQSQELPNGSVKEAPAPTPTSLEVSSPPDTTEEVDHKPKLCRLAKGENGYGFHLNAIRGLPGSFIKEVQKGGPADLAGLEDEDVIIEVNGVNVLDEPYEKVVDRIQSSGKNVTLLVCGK

T9: GST-mouse syntenin fusion protein (Mus musculus, UniProt O08992 108-286)
T9 construct: also called Mus musculus Syntenin; not shown: glutathione S-transferase encoded by vector pGEX-3X (Pharmacia)
T9 chain: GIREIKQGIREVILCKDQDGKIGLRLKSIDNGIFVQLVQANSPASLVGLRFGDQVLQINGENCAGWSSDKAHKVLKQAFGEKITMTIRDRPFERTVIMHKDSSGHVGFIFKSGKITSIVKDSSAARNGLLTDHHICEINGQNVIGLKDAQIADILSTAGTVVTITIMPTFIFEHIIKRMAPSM

T10: GST-TAX-IP43 PDZ domain fusion protein (human, UniProt Q13884 109-180)
T10 construct: also called TAX43; not shown: glutathione S-transferase encoded by vector pGEX-3X (Pharmacia)
T10 sequence: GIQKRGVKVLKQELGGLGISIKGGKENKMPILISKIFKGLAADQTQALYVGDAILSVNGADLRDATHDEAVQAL

T11: K559 PDZ-GST fusion protein (Homo sapiens (Human), UniProt Q9Y6V0 4489-4593)
T11 construct: Order of GST and PDZ part and limits not seen in the excerpts
T11 sequence: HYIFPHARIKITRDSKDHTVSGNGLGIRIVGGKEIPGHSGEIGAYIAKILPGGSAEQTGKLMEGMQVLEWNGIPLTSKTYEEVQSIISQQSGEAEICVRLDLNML

T12: TAX-IP33 PDZ-GST fusion protein (Homo sapiens (Human), UniProt O14910 103-193)
T12 construct: Order of GST and PDZ part and limits not seen in the excerpts
T12 sequence: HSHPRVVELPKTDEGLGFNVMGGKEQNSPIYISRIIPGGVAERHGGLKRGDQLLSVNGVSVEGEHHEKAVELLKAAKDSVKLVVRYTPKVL

B1: CDw137 (4-1BB ILA) C-terminal peptide AA21L (peptide)
peptide: Biotin-QEEDGCSCRFPEEEEGGCEL
modifications: cysteine pairing not given here
notes: Marked (S), sticky peptide with high background; also called CDw137 (4-1BB ILA) (S)

Molecular target: T1, GST-DLG5 (p-dlg) PDZ domain fusion …
Test: A/G assays

binding result	Binder
no binding	Biotin-QFMTADETRNLQNVDMKIGV (also called CD44 (long form)) [CD44 C-terminal peptide AA9L, biotinylated]
no binding	B1
no binding	Biotin-TREDIYVNYPTFSRRPKTRV [DNAM-1 C-terminal peptide AA22L, biotinylated]
no binding	Biotin-VTSPNKHLGLVTPHKTELV [CD83 C-terminal peptide AA47L, biotinylated]
no binding	Biotin-DLGNMEENKKLEENNHKTEA (also called CD166 (CD6L)) [CD166 C-terminal peptide AA20L, biotinylated]

Molecular target: T13, K316 PDZ-GST fusion protein (Homo sapiens (Human), UniProt Q14CM0 72-159)
T13 construct: Order of GST and PDZ part and limits not seen in the excerpts
T13 sequence (Q14CM0 72-159 limits assumed): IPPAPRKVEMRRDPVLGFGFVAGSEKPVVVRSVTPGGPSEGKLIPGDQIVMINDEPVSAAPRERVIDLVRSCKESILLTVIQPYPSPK
Test: A/G assays

binding result	Binder
no binding	Biotin-QFMTADETRNLQNVDMKIGV (also called CD44 (long form)) [CD44 C-terminal peptide AA9L, biotinylated]
no binding	Biotin-TREDIYVNYPTFSRRPKTRV [DNAM-1 C-terminal peptide AA22L, biotinylated]
no binding	Biotin-VTSPNKHLGLVTPHKTELV [CD83 C-terminal peptide AA47L, biotinylated]
no binding	Biotin-DLGNMEENKKLEENNHKTEA (also called CD166 (CD6L)) [CD166 C-terminal peptide AA20L, biotinylated]

Molecular target: T2, GST-DVL1 PDZ domain fusion protein
Test: A/G assays

binding result	Binder
no binding	Biotin-QFMTADETRNLQNVDMKIGV (also called CD44 (long form)) [CD44 C-terminal peptide AA9L, biotinylated]
no binding	B1
no binding	Biotin-TREDIYVNYPTFSRRPKTRV [DNAM-1 C-terminal peptide AA22L, biotinylated]
no binding	Biotin-VTSPNKHLGLVTPHKTELV [CD83 C-terminal peptide AA47L, biotinylated]
no binding	Biotin-DLGNMEENKKLEENNHKTEA (also called CD166 (CD6L)) [CD166 C-terminal peptide AA20L, biotinylated]

Molecular target: T3, X11β PDZ-GST fusion protein
Test: A/G assays

binding result	Binder
no binding	Biotin-QFMTADETRNLQNVDMKIGV (also called CD44 (long form)) [CD44 C-terminal peptide AA9L, biotinylated]
no binding	B1
no binding	Biotin-TREDIYVNYPTFSRRPKTRV [DNAM-1 C-terminal peptide AA22L, biotinylated]
no binding	Biotin-VTSPNKHLGLVTPHKTELV [CD83 C-terminal peptide AA47L, biotinylated]
no binding	Biotin-DLGNMEENKKLEENNHKTEA (also called CD166 (CD6L)) [CD166 C-terminal peptide AA20L, biotinylated]

Molecular target: T4, KIAA0807 (PDZ domain)-GST fusion protein
Test: A/G assays

binding result	Binder
no binding	Biotin-QFMTADETRNLQNVDMKIGV (also called CD44 (long form)) [CD44 C-terminal peptide AA9L, biotinylated]
no binding	B1
no binding	Biotin-TREDIYVNYPTFSRRPKTRV [DNAM-1 C-terminal peptide AA22L, biotinylated]
no binding	Biotin-VTSPNKHLGLVTPHKTELV [CD83 C-terminal peptide AA47L, biotinylated]
no binding	Biotin-DLGNMEENKKLEENNHKTEA (also called CD166 (CD6L)) [CD166 C-terminal peptide AA20L, biotinylated]

Molecular target: T5, TAX-IP2L PDZ-GST fusion protein
Test: A/G assays

binding result	Binder
no binding	Biotin-QFMTADETRNLQNVDMKIGV (also called CD44 (long form)) [CD44 C-terminal peptide AA9L, biotinylated]
no binding	Biotin-TREDIYVNYPTFSRRPKTRV [DNAM-1 C-terminal peptide AA22L, biotinylated]
no binding	Biotin-VTSPNKHLGLVTPHKTELV [CD83 C-terminal peptide AA47L, biotinylated]
no binding	Biotin-DLGNMEENKKLEENNHKTEA (also called CD166 (CD6L)) [CD166 C-terminal peptide AA20L, biotinylated]

Molecular target: T6, GST-CASK PDZ domain fusion protein
Test: A/G assays

binding result	Binder
no binding	Biotin-QFMTADETRNLQNVDMKIGV (also called CD44 (long form)) [CD44 C-terminal peptide AA9L, biotinylated]
no binding	B1
no binding	Biotin-TREDIYVNYPTFSRRPKTRV [DNAM-1 C-terminal peptide AA22L, biotinylated]
no binding	Biotin-VTSPNKHLGLVTPHKTELV [CD83 C-terminal peptide AA47L, biotinylated]
no binding	Biotin-DLGNMEENKKLEENNHKTEA (also called CD166 (CD6L)) [CD166 C-terminal peptide AA20L, biotinylated]

Molecular target: T7, MINT3 PDZ-GST fusion protein
Test: A/G assays

binding result	Binder
no binding	Biotin-QFMTADETRNLQNVDMKIGV (also called CD44 (long form)) [CD44 C-terminal peptide AA9L, biotinylated]
no binding	B1
no binding	Biotin-TREDIYVNYPTFSRRPKTRV [DNAM-1 C-terminal peptide AA22L, biotinylated]
no binding	Biotin-VTSPNKHLGLVTPHKTELV [CD83 C-terminal peptide AA47L, biotinylated]
no binding	Biotin-DLGNMEENKKLEENNHKTEA (also called CD166 (CD6L)) [CD166 C-terminal peptide AA20L, biotinylated]

Molecular target: T8, GST-PDZK1 fusion protein (PDZ domains …)
Test: A/G assays

binding result	Binder
no binding	Biotin-QFMTADETRNLQNVDMKIGV (also called CD44 (long form)) [CD44 C-terminal peptide AA9L, biotinylated]
no binding	B1
no binding	Biotin-TREDIYVNYPTFSRRPKTRV [DNAM-1 C-terminal peptide AA22L, biotinylated]
no binding	Biotin-VTSPNKHLGLVTPHKTELV [CD83 C-terminal peptide AA47L, biotinylated]
no binding	Biotin-DLGNMEENKKLEENNHKTEA (also called CD166 (CD6L)) [CD166 C-terminal peptide AA20L, biotinylated]

Molecular target: T9, GST-mouse syntenin fusion protein
Test: A/G assays

binding result	Binder
no binding	B1
no binding	Biotin-TREDIYVNYPTFSRRPKTRV [DNAM-1 C-terminal peptide AA22L, biotinylated]
no binding	Biotin-VTSPNKHLGLVTPHKTELV [CD83 C-terminal peptide AA47L, biotinylated]
no binding	Biotin-DLGNMEENKKLEENNHKTEA (also called CD166 (CD6L)) [CD166 C-terminal peptide AA20L, biotinylated]

Molecular target: T10, GST-TAX-IP43 PDZ domain fusion protein
Test: A/G assays

binding result	Binder
no binding	Biotin-QFMTADETRNLQNVDMKIGV (also called CD44 (long form)) [CD44 C-terminal peptide AA9L, biotinylated]
no binding	B1
no binding	Biotin-TREDIYVNYPTFSRRPKTRV [DNAM-1 C-terminal peptide AA22L, biotinylated]
no binding	Biotin-VTSPNKHLGLVTPHKTELV [CD83 C-terminal peptide AA47L, biotinylated]
no binding	Biotin-DLGNMEENKKLEENNHKTEA (also called CD166 (CD6L)) [CD166 C-terminal peptide AA20L, biotinylated]

Molecular target: T11, K559 PDZ-GST fusion protein
Test: A/G assays

binding result	Binder
no binding	Biotin-QFMTADETRNLQNVDMKIGV (also called CD44 (long form)) [CD44 C-terminal peptide AA9L, biotinylated]
no binding	Biotin-TREDIYVNYPTFSRRPKTRV [DNAM-1 C-terminal peptide AA22L, biotinylated]
no binding	Biotin-VTSPNKHLGLVTPHKTELV [CD83 C-terminal peptide AA47L, biotinylated]
no binding	Biotin-DLGNMEENKKLEENNHKTEA (also called CD166 (CD6L)) [CD166 C-terminal peptide AA20L, biotinylated]

Molecular target: T12, TAX-IP33 PDZ-GST fusion protein
Test: A/G assays

binding result	Binder
no binding	Biotin-QFMTADETRNLQNVDMKIGV (also called CD44 (long form)) [CD44 C-terminal peptide AA9L, biotinylated]
no binding	Biotin-TREDIYVNYPTFSRRPKTRV [DNAM-1 C-terminal peptide AA22L, biotinylated]
no binding	Biotin-VTSPNKHLGLVTPHKTELV [CD83 C-terminal peptide AA47L, biotinylated]
no binding	Biotin-DLGNMEENKKLEENNHKTEA (also called CD166 (CD6L)) [CD166 C-terminal peptide AA20L, biotinylated]
